T1: human IL-11 (human, UniProt P20809 22-199)
T1 construct: bought from Invigate; also called hIL-11; hIL11
T1 sequence: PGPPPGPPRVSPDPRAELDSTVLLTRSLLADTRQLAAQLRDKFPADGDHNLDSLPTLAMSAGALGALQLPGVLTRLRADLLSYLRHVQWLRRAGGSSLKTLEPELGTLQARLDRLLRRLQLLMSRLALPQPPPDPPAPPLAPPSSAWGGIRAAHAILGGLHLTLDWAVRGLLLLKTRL

T2: murine IL-11 (mouse, UniProt P47873 22-199)
T2 construct: bought from Invigate; also called mIL-11; mIL11
T2 sequence: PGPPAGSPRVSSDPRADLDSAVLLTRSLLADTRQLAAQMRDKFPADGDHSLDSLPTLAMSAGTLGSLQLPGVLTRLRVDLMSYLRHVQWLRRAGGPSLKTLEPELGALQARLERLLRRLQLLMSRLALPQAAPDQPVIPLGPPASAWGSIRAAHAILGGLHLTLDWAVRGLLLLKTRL

T3: human IL2Ra (human, UniProt P01589 22-240, limits assumed)
T3 construct: bought protein, coated on the plate; also called hIL2RA; IL-2 receptor alpha
T3 sequence (looked up): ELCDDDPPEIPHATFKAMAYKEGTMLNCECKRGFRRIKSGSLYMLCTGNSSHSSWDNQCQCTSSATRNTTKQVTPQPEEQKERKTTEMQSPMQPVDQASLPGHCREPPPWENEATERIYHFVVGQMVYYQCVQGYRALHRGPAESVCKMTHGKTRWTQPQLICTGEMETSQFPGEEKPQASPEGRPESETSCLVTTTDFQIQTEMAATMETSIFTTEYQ

T4: murine IL-11 (mouse, UniProt P47873 22-199)
T4 sequence: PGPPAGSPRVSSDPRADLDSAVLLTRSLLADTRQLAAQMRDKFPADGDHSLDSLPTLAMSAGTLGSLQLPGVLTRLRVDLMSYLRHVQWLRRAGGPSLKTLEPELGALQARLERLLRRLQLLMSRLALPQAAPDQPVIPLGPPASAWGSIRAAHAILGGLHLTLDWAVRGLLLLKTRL

T5: human IL-11 (human, UniProt P20809 22-199)
T5 sequence: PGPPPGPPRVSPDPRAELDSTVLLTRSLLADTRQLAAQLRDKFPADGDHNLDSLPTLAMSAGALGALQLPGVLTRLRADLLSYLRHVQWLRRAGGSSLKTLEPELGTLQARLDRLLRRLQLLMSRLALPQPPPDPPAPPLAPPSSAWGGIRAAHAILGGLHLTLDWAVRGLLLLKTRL


Key:
human IL-11 [1] = molecular target: T1, human IL-11; experiment: SPR, antibody captured, IL-11 as analyte
Protocol: (§1) Antibodies were captured via anti-mouse Fc IgGs (“Mouse antibody capture kit, Order No. BR100383, Cytiva) covalently amine coupled to a Series S CM5 sensor chip (Cytiva). The amine coupling was carried out according to the manufacturer's instructions using 1-ethyl-3-(3-dimethylaminopropyl) carbodiimide hydrochloride (EDC), N-hydroxysuccinimide (NHS) and ethanolamine HCl, pH 8.5 (“Amine Coupling Kit” BR-1000-50, Cytiva.). Human IL-11 (Invigate, e.g., lot #C121021-19), and murine IL-11 (Invigate, e.g., lot #C210819-09) were used as analytes. […] Based on that experiment an IL-11 concentration range was chosen to optimally determine kinetics and affinity of anti-IL-11 antibodies in multicycle kinetics mode. The sensor surface was regenerated with glycine pH 1.7 after each antigen injection. Obtained sensorgrams were double referenced (subtraction of reference flow cell signal and buffer injection) and were fitted to a 1:1 Langmuir binding model to derive kinetic data using the Biacore T200 Evaluation software or the Biacore Insight software.
(§2) 42 hits from the IL-11 and […] screening analysis were selected, expressed by transient transfection of mammalian cells and purified as described in Example 15. Antibodies were then tested for human IL-11 and murine IL-11 binding by SPR as described in Example 16.

murine IL-11 [2] = molecular target: T2, murine IL-11; experiment: SPR, antibody captured, IL-11 as analyte
Protocol: as §1, §2

human IL2Ra = molecular target: T3, human IL2Ra; experiment: IL2Ra direct binding ELISA, signal ratio to isotype control
Outline: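 Plates coated overnight at 4-8 °C with IL2RA at 1 or 0 μg/ml, blocked with SmartBlock. Antibody dilution series from 1E-7 to 2E-13 M bound 90 min at room temperature, detected with HRP anti-mouse IgG and Amplex red/H2O2; fluorescence at 535/590 nm.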

murine IL-11 [3] = molecular target: T4, murine IL-11; experiment: cell-based or functional assay
human IL-11 [4] = molecular target: T5, human IL-11; experiment: cell-based or functional assay

Row | Binder | Kd (human IL-11 [1]) | Kd (murine IL-11 [2]) | hIL2RA ELISA Binding: Ratio to Isotpye (human IL2Ra) | RGA Efficacy (%) (murine IL-11 [3]) | RGA IC50 (murine IL-11 [3]) | RGA Efficacy (%) (human IL-11 [4]) | RGA IC50 (human IL-11 [4])
1 | TPP-26292 (antibody, V domains shown, constant regions not restated) VH: EVQLLESGGGLVQPGGSLRLSCAASGFTFSSYGMHWVRQAPGKGLEWVSVISYDGSYKYYADSVKGRFTISRDNSKNTLYLQMNSLRAEDTAVYYCAAGVPDYWGQGTLVTVSS VL: QSVLTQPPSASGTPGQRVTISCTGSSSNIGAGYDVHWYQQLPGTAPKLLIYSNNERPSGVPDRFSGSKSGTSASLAISGLRSEDEADYYCAAWDESLNGPVFGGGTKLTVL | 13 nM | 0.48 nM |  |  |  |  | 
2 | TPP-26295 (antibody, V domains shown, constant regions not restated) VH: EVQLLESGGGLVQPGGSLRLSCAASGFTFSSYGMHWVRQAPGKGLEWVSVISYDGSYKYYADSVKGRFTISRDNSKNTLYLQMNSLRAEDTAVYYCAAGVPDYWGQGTLVTVSS VL: QSVLTQPPSASGTPGQRVTISCTGSSSNIGAGYDVHWYQQLPGTAPKLLIYSNNERPSGVPDRFSGSKSGTSASLAISGLRSEDEADYYCAAWDHSLNGPVFGGGTKLTVL | 9.8 nM | 0.65 nM |  |  |  |  | 
3 | TPP-26296 (antibody, V domains shown, constant regions not restated) VH: EVQLLESGGGLVQPGGSLRLSCAASGFTFSSYGMHWVRQAPGKGLEWVSVISYDGSYKYYADSVKGRFTISRDNSKNTLYLQMNSLRAEDTAVYYCAAGVPDYWGQGTLVTVSS VL: QSVLTQPPSASGTPGQRVTISCTGSSSNIGAGYDVHWYQQLPGTAPKLLIYSNNERPSGVPDRFSGSKSGTSASLAISGLRSEDEADYYCAAWDNSLNGPVFGGGTKLTVL | 14 nM | 0.71 nM |  |  |  |  | 
4 | TPP-26333 (antibody, V domains shown, constant regions not restated) VH: EVQLLESGGGLVQPGGSLRLSCAASGFTFSSYGFHWVRQAPGKGLEWVSVISYDGSYKYYADSVKGRFTISRDNSKNTLYLQMNSLRAEDTAVYYCAAGVPDYWGQGTLVTVSS VL: QSVLTQPPSASGTPGQRVTISCTGSSSNIGAGYDVHWYQQLPGTAPKLLIYSNNERPSGVPDRFSGSKSGTSASLAISGLRSEDEADYYCAAWDDSLNGPVFGGGTKLTVL | 11 nM |  |  |  |  |  | 
5 | TPP-26329 (antibody, V domains shown) VH: EVQLLESGGGLVQPGGSLRLSCAASGFTFSSWGMHWVRQAPGKGLEWVSVISYDGSYKYYADSVKGRFTISRDNSKNTLYLQMNSLRAEDTAVYYCAAGVPDYWGQGTLVTVSS VL: QSVLTQPPSASGTPGQRVTISCTGSSSNIGAGYDVHWYQQLPGTAPKLLIYSNNERPSGVPDRFSGSKSGTSASLAISGLRSEDEADYYCAAWDDSLNGPVFGGGTKLTVL |  |  | 247 ratio | 95.5% | 1 nM | 67.1% | 2.6 nM
6 | TPP-26331 (antibody, V domains shown) VH: EVQLLESGGGLVQPGGSLRLSCAASGFTFSSYGGHWVRQAPGKGLEWVSVISYDGSYKYYADSVKGRFTISRDNSKNTLYLQMNSLRAEDTAVYYCAAGVPDYWGQGTLVTVSS VL: QSVLTQPPSASGTPGQRVTISCTGSSSNIGAGYDVHWYQQLPGTAPKLLIYSNNERPSGVPDRFSGSKSGTSASLAISGLRSEDEADYYCAAWDDSLNGPVFGGGTKLTVL |  |  | 107 ratio | 90.9% | 1.5 nM | 54.9% | 5.4 nM
7 | TPP-26333 (antibody, V domains shown) VH: EVQLLESGGGLVQPGGSLRLSCAASGFTFSSYGFHWVRQAPGKGLEWVSVISYDGSYKYYADSVKGRFTISRDNSKNTLYLQMNSLRAEDTAVYYCAAGVPDYWGQGTLVTVSS VL: QSVLTQPPSASGTPGQRVTISCTGSSSNIGAGYDVHWYQQLPGTAPKLLIYSNNERPSGVPDRFSGSKSGTSASLAISGLRSEDEADYYCAAWDDSLNGPVFGGGTKLTVL |  |  | 436 ratio | 94.1% | 1.2 nM | 64.7% | 13 nM

Results, then the binder that gave them:

Row | Kd (human IL-11 [1]) | Kd (murine IL-11 [2]) | hIL2RA ELISA Binding: Ratio to Isotpye (human IL2Ra) | RGA Efficacy (%) (murine IL-11 [3]) | RGA IC50 (murine IL-11 [3]) | RGA Efficacy (%) (human IL-11 [4]) | RGA IC50 (human IL-11 [4]) | Binder
8 | 8.6 nM | 0.54 nM |  |  |  |  |  | TPP-26290 (antibody, V domains shown, constant regions not restated) VH: EVQLLESGGGLVQPGGSLRLSCAASGFTFSSYGMHWVRQAPGKGLEWVSVISYDGSYKYYADSVKGRFTISRDNSKNTLYLQMNSLRAEDTAVYYCAAGVPDYWGQGTLVTVSS VL: QSVLTQPPSASGTPGQRVTISCTGSSSNIGAGMDVHWYQQLPGTAPKLLIYSNNERPSGVPDRFSGSKSGTSASLAISGLRSEDEADYYCAAWDDSLNGPVFGGGTKLTVL
9 | 9.7 nM | 0.94 nM |  |  |  |  |  | TPP-26291 (antibody, V domains shown, constant regions not restated) VH: EVQLLESGGGLVQPGGSLRLSCAASGFTFSSYGMHWVRQAPGKGLEWVSVISYDGSYKYYADSVKGRFTISRDNSKNTLYLQMNSLRAEDTAVYYCAAGVPDYWGQGTLVTVSS VL: QSVLTQPPSASGTPGQRVTISCTGSSSNIGAGYDVHWYQQLPGTAPKLLIYSNNERPSGVPDRFSGSKSGTSASLAISGLRSEDEADYYCAAWDPSLNGPVFGGGTKLTVL
10 | 11 nM | 0.26 nM |  |  |  |  |  | TPP-26293 (antibody, V domains shown, constant regions not restated) VH: EVQLLESGGGLVQPGGSLRLSCAASGFTFSSYGMHWVRQAPGKGLEWVSVISYDGSYKYYADSVKGRFTISRDNSKNTLYLQMNSLRAEDTAVYYCAAGVPDYWGQGTLVTVSS VL: QSVLTQPPSASGTPGQRVTISCTGSSSNIGAWYDVHWYQQLPGTAPKLLIYSNNERPSGVPDRFSGSKSGTSASLAISGLRSEDEADYYCAAWDDSLNGPVFGGGTKLTVL
11 | 11 nM | 0.82 nM |  |  |  |  |  | TPP-26294 (antibody, V domains shown, constant regions not restated) VH: EVQLLESGGGLVQPGGSLRLSCAASGFTFSSYGMHWVRQAPGKGLEWVSVISYDGSYKYYADSVKGRFTISRDNSKNTLYLQMNSLRAEDTAVYYCAAGVPDYWGQGTLVTVSS VL: QSVLTQPPSASGTPGQRVTISCTGSSSNIGAAYDVHWYQQLPGTAPKLLIYSNNERPSGVPDRFSGSKSGTSASLAISGLRSEDEADYYCAAWDDSLNGPVFGGGTKLTVL
12 |  |  | 11 ratio | 38% | 470 nM | 15% |  | TPP-26327 (antibody, V domains shown) VH: EVQLLESGGGLVQPGGSLRLSCAASGFTFSSYGMHWVRQAPGKGLEWVSVIRYDGSYKYYADSVKGRFTISRDNSKNTLYLQMNSLRAEDTAVYYCAAGVPDYWGQGTLVTVSS VL: QSVLTQPPSASGTPGQRVTISCTGSSSNIGAGYDVHWYQQLPGTAPKLLIYSNNERPSGVPDRFSGSKSGTSASLAISGLRSEDEADYYCAAWDDSLNGPVFGGGTKLTVL
13 |  |  | 27 ratio | 70.8% | 64 nM | 18.6% |  | TPP-26328 (antibody, V domains shown) VH: EVQLLESGGGLVQPGGSLRLSCAASGFTFSSYGMHWVRQAPGKGLEWVSVISYDGSYKYYADSVKGRFTISRDNSKNTLYLQMNSLRAEDTAVYYCAATVPDYWGQGTLVTVSS VL: QSVLTQPPSASGTPGQRVTISCTGSSSNIGAGYDVHWYQQLPGTAPKLLIYSNNERPSGVPDRFSGSKSGTSASLAISGLRSEDEADYYCAAWDDSLNGPVFGGGTKLTVL
14 |  |  | 264 ratio | 88.2% | 1.3 nM | 64.8% | 3.4 nM | TPP-26330 (antibody, V domains shown) VH: EVQLLESGGGLVQPGGSLRLSCAASGFTFSFYGMHWVRQAPGKGLEWVSVISYDGSYKYYADSVKGRFTISRDNSKNTLYLQMNSLRAEDTAVYYCAAGVPDYWGQGTLVTVSS VL: QSVLTQPPSASGTPGQRVTISCTGSSSNIGAGYDVHWYQQLPGTAPKLLIYSNNERPSGVPDRFSGSKSGTSASLAISGLRSEDEADYYCAAWDDSLNGPVFGGGTKLTVL
15 |  |  | 19 ratio | 0.9% |  | 0.8% |  | TPP-26332 (antibody, V domains shown) VH: EVQLLESGGGLVQPGGSLRLSCAASGFTFSSYKMHWVRQAPGKGLEWVSVISYDGSYKYYADSVKGRFTISRDNSKNTLYLQMNSLRAEDTAVYYCAAGVPDYWGQGTLVTVSS VL: QSVLTQPPSASGTPGQRVTISCTGSSSNIGAGYDVHWYQQLPGTAPKLLIYSNNERPSGVPDRFSGSKSGTSASLAISGLRSEDEADYYCAAWDDSLNGPVFGGGTKLTVL

— patent US20240317847A1 (Bayer, published 2024)
